Target: the molecule itself
Experiment: fluorescence correlation spectroscopy

B1: HsSAS-6–[F131E] with a C-terminal GFP (natural protein, human, UniProt Q6UVJ0 1-657, looked up)
chain: MSQVLFHQLVPLQVKCKDCEERRVSIRMSIELQSVSNPVHRKDLVIRLTDDTDPFFLYNLVISEEDFQSLKFQQGLLVDFLAFPQKFIDLLQQCTQEHAKEIPRFLLQLVSPAAILDNSPAFLNVVETNPEKHLTHLSLKLLPGNDVEIKKFLAGCLKCSKEEKLSLMQSLDDATKQLDFTRKTLAEKKQELDKLRNEWASHTAALTNKHSQELTNEKEKALQAQVQYQQQHEQQKKDLEILHQQNIHQLQNRLSELEAANKDLTERKYKGDSTIRELKAKLSGVEEELQRTKQEVLSLRRENSTLDVECHEKEKHVNQLQTKVAVLEQEIKDKDQLVLRTKEAFDTIQEQKVVLEENGEKNQVQLGKLEATIKSLSAELLKANEIIKKLQGDLKTLMGKLKLKNTVTIQQEKLLAEKEEKLQKEQKELQDVGQSLRIKEQEVCKLQEQLEATVKKLEESKQLLKNNEKLITWLNKELNENQLVRKQDVLGPSTTPPAHSSSNTIRSGISPNLNVVDGRLTYPTCGIGYPVSSAFAFQNTFPHSISAKNTSHPGSGTKVQFNLQFTKPNASLGDVQSGATISMPCSTDKENGENVGLESKYLKKREDSIPLRGLSQNLFSNSDHQRDGTLGALHTSSKPTALPSASSAYFPGQLPNS
brightness relative to monomeric GFP: ~1.6 fold | stoichiometry N: 2

From article PMC3941056 (The Journal of Cell Biology, 2014)
